According to article PMC7660477:

Key:
Assay in all cases: microtubule co-sedimentation (taxol-mediated polymerisation, sucrose gradient centrifugation) with western blot quantification
VAPB = VAPB (UniProt Q9QY76); conditions: E18.5 forebrain, n = 3, mean ± s.e.m., parent: est. 0.27, read off a plot
VAPA = VAPA (UniProt Q9WV55); conditions: E18.5 forebrain, n = 3, mean ± s.e.m., parent: est. 0.30, read off a plot
[1] = molecular target: dynein intermediate chain (DYNC1I1/2) (UniProt O88485); conditions: E18.5 forebrain; n = 3; mean ± s.e.m.; P<0.01; parent: est. 0.55; read off a plot
KIF5C = KIF5C (UniProt P28738); conditions: E18.5 forebrain, n = 3, mean ± s.e.m., parent: est. 0.61, read off a plot
EZRIN = EZRIN (UniProt P26040); conditions: E18.5 forebrain, n = 3, mean ± s.e.m., parent: est. 0.10, read off a plot
REEP1 = REEP1 (UniProt Q8BGH4); conditions: E18.5 forebrain, n = 3, mean ± s.e.m., parent: est. 0.28, read off a plot

response (ratio MT pellet/lysate) (VAPB): 0.14
response (ratio MT pellet/lysate) (VAPA): 0.34
response (ratio MT pellet/lysate) [1]: 0.29
response (ratio MT pellet/lysate) (KIF5C): 0.6
response (ratio MT pellet/lysate) (EZRIN): 0.12
response (ratio MT pellet/lysate) (REEP1): 0.05
Substance: microtubules from the forebrain of E18.5 R402H/R402H littermate controls (no Cre; wild-type Tuba1a expressed) (from UniProt P68369;P99024)
